Experiment: yeast display, Sf9 membrane polyspecificity reagent, FACS + sequencing; frameworks hold sequencing errors
Method in brief: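 A nanobody's polyreactivity label depends on the gate it was sorted from. Yeast display cells were stained with 10% biotinylated, detergent-solubilized Sf9 membrane reagent for 1 hour at 4 °C, enriched on streptavidin microbeads and sorted by FACS. The low and high (top ~1%) gates were set on anti-HA fluorescence for expression and streptavidin fluorescence for reagent binding.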

Sequence	polyreactivity (PSR sort gate)
QVQLEESGGGLVQAGGSLRLICAASGSIFYQYPMGWYRQAPGKERELVAGITWSGGSTYYADSVKGRFTISRDNAKNTVYLQMNSLKPEDTAVYYCAAQYFCYVYSYDYWGQGTQVTVSS	high polyreactivity
QVQLVESGVGLVQAGVRLRLSCAASGITLRRYAMGWYRQAPGKEREFVAAISRTGGNTYYADSVKGRFTISRDNAKNTVYLQMNSLKPEDTAVYYCAREVYRHYAPVGYDYWGQGTQVTVSS	high polyreactivity
QVQLVESGGGLVQAGGSLRLSCAASGRTFGWNARGWYRQAPGKEKELVAAISWSGTNTYYADSVKGRFTISRDNAKNTVYLQMNSLKPEDTAVYYCAARDWTGSWNGYWSCEYNYWGQGTQVTGSS	low polyreactivity
QVQLVESGGGLVQAGGSLRLSCAASGFTFYYNARGWYRQAPGKERELVASITRSGGRTYYADSVKGRFTISRDNAKNTVYLQMNSLKPEDTAVYYCAAANHKGSRMDYWGQGTQVTVSS	high polyreactivity
QVQLVESGGGLVQAGGSLRLSCAASGRIFVQYDMGWYRQAPGKERELVAAINDSGDITYYADSVKGRFTISRDNAKNTVYLQMNSLRPEDTAVYYCAASAAYYGFYKSVTYDYWGQGTQVTVSS	low polyreactivity
QVQRVESGGGLVQAGGSLRLSCAASGNNVMGWYRQAPGKERELVAAISWSGTSTYADSVKGRFTISRDNAKNTVYIQMNSLKPEDTAVYYCAAEQQGRKYRASRRYDYWGQGTQVTVSS	low polyreactivity
QVQLVESGGGLVQAGGSLRLSCAASGSTFNVYAMGWYRQAPGKERELVASIRTSGTRTYYADSVKGRFTISRDNAKNTVYLQMNSLKPEDTAVYYCNARYYSNLRRHGGYWGQGTQVTVSS	high polyreactivity
QVQLVESGGGLVQAGGSLRLSCAASGRIFYGNAMGWYRQAPGKERELVAAISSGTSTNYADSVKGLFTISRDNAKNTVYLQMHCLKPVDTAVYYCAAGSYSLYLYSLYFDFDYWGQGTQVTVSS	low polyreactivity
QVQLVESGGGLVQAGGSLRLSCAASGFTFSFYAMGWYRQAPGKERELVAGISKRGGSTYYADSVKGRFTISRDNAKNTVYLQMNSLKPEDTAVYYCAKRSSLYRSLVDYWGQGTQVTVSS	high polyreactivity
QVQLVESGGGLVQAGGSLRLSCAASGPTFGVNAMGWYRQAPGKERELVAVISSTGSTNYSDSVKGRFTISRDNAKYTVYLQMNSLKPEDTAVYYCAVGPNSVGNRSYGFDYWGQGTQVTVSS	low polyreactivity
QVQLVESGGGLVQAGGSLRLSCAASGNTFFDNAMGWYRQAPGKERELVAAITFSGGSTYYADSVKGRFTISRDNAKNTVYLQMNSLKPEDTAVYYCAAVIRSRYSYYEYDYWGQGTQVTVSS	high polyreactivity
QVQLVESGGGLVQAGGSLRLSCAASGITFSGNAMGWYRPATGKERELVAGISRRGGSTYYADSVKGRFTISRDNAKNTVYLEMNSLKPEDTAVYYCARQFRRYYYAGYRYDYWGQGTQVTVSS	high polyreactivity
QDQHVESGGGLVQAGCSLRLSCAASGRTFTYNAMGWYRQAPGKERELVASISSRGGSTYYADSVKGRFTISRDNAKNTVYLQMNSLKPEDTAVYYCAARWRYQLSGSRLSYGKYDYWGQGTQVTVSS	high polyreactivity
QVQLVESGGGLVQAGGSLRLSCAASGRIFYYYAMGWYRQAPGKERELVAVISRGGRTKYADSVKGRFTISRDNAKNTVYLQMNSLKPEDTAVYYCAAYPSYYGDSGLRYDYWGQGTQVTVSS	high polyreactivity
QVQLVESGGGLVQAGGSLRLSCAASGSTFGYYAMGWYRQAPGKERELVAAIRWSGSTYYADSVKGRFTISRDNAKNTVYLQMNSLKPEDTAVYYCAADFVKRQANRQFDYWGQGTQVTVSS	high polyreactivity
QVQLVESGGGLVQAGRSHRLSCAASGSTYANTMGWYIQAPGKERELDAAITYTGGSTYYADSVKGRFTISRDNAKNTVYLQMNSLKPEDTAVYYCAADAQAPPGGFKEYDYWGQGTQVTVSS	low polyreactivity
QVQLVESAGGLVQAGGSLRLSCAASGICAVYARGWYRQAPGKERELVAAITLSGGSTSYADSVKGRFTISRDNAKNTVYLQMNSLNPAATEVYYCAVLIRYPYYYWGQGTQVTVSS	low polyreactivity
